Experimental data as given in patent US20230227838A1, “ENHANCED CELL SURVIVAL AGAINST BIOTIC AND ABIOTIC STRESSES THROUGH SALICYLICK ACID-INDUCED NPR1 CONDENSATES” (priority 2020, published 2023).

Molecular target: sim3-GFP (Arabidopsis thaliana) (UniProt P93002)
Assay: sim3-GFP IP, LC-MS/MS

Chain of sim3-GFP (Arabidopsis thaliana) (P93002 other isoform, or with tags, fused parts or gaps): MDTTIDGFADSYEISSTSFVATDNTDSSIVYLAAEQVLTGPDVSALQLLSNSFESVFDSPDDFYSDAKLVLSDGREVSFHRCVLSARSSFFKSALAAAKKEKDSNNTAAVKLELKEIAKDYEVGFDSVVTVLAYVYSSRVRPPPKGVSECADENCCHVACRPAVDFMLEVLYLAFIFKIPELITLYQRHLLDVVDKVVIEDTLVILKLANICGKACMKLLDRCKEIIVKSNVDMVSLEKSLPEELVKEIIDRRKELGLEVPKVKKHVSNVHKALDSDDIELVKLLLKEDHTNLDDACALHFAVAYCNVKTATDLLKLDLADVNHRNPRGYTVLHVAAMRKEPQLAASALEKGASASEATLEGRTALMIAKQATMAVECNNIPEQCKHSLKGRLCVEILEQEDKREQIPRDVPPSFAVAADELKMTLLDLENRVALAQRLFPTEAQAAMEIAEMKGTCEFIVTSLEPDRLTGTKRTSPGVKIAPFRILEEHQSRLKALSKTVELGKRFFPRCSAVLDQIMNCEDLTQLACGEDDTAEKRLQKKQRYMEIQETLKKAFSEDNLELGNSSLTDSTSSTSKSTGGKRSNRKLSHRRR

| Binder | Normalized Fold Change: SA vs Mock [fold] |
| --- | --- |
| ELI3-2, elicitor-activated gene 3-2 (protein, UniProt Q02972 1-359, looked up) Cinnamyl alcohol dehydrogenase 8: MGKVLQKEAFGLAAKDNSGVLSPFSFTRRETGEKDVRFKVLFCGICHSDLHMVKNEWGMSTYPLVPGHEIVGVVTEVGAKVTKFKTGEKVGVGCLVSSCGSCDSCTEGMENYCPKSIQTYGFPYYDNTITYGGYSDHMVCEEGFVIRIPDNLPLDAAAPLLCAGITVYSPMKYHGLDKPGMHIGVVGLGGLGHVGVKFAKAMGTKVTVISTSEKKRDEAINRLGADAFLVSRDPKQIKDAMGTMDGIIDTVSATHSLLPLLGLLKHKGKLVMVGAPEKPLELPVMPLIFERKMVMGSMIGGIKETQEMIDMAGKHNITADIELISADYVNTAMERLEKADVRYRFVIDVANTLKPNPNL | 57 |
| UBC36, ubiquitin-conjugating enzyme 36 (protein, UniProt Q9FZ48 1-153, looked up) Ubiquitin-conjugating enzyme E2 36: MANSNLPRRIIKETQRLLSEPAPGISASPSEENMRYFNVMILGPTQSPYEGGVFKLELFLPEEYPMAAPKVRFLTKIYHPNIDKLGRICLDILKDKWSPALQIRTVLLSIQALLSAPNPDDPLSENIAKHWKSNEAEAVETAKEWTRLYASGA | 3.95 |
| PNG1, peptide-N-glycanase 1 (protein, UniProt Q9FGY9 1-721, looked up) Peptide-N(4)-(N-acetyl-beta-glucosaminyl)asparagine amidase: MVARKFVVRHEDSSFDVDYNTEDGLEVLRFLIFSLTLVPPEEQKIVAEDDNRLVSDESDLASLSERLRLVSVGEDSVENSDAEMLKSDEELARMLQAEEDAIMFQQFVAARDNGEFEGRIRPYVSQVLMYEDPVRQDAARKTVPKDELEEKALVSLAKEGNFEPSKEERDYAFLLQLLFWFKKSFRWVNEPPCDFCGNKTIGQGMGNPLTSELAYGANRVEIYRCTMCPTTTRFPRYNDPLKLVETKKGRCGEWANCFTLYCRTFGYDSRLIMDFTDHVWTECYSHSLKRWIHLDPCEGVYDKPMLYEKGWNKKLNYVIAISKDGVCDVTKRYTKKWHEVLSRRTLTTESSLQDGLRTLTRERRRSLMFESLSKLELRDRNEQEELERNLHSADNASVSLPGRQSGDREWRIMRSEFGSDENSSVSSSSCPVRKCVDDHVTNIYDSFLPILTQFVEDGLPVARTNEVLKMIKQVLVDLKNAPYKTRKARLTLDSDNSSSFPEQFLPALGDLLLALSLKSERDTNGKSVTISVDGKLTKTAIALPVALDALRELVADLSKYQNLNKDSLSFPLVKQNRVCSGSVLASGEELPSGIATAAFDGIQESKWEEPNGAKGCWIVYKTLYNQMHQLIAYELMSANDAPERDPKDWILEGSNDGGSTWCVLDKQTSQVFEERFQRKSYKITTPGFQANLFRFRFLSVRDVNSTSRLQLGSIDLYRSHQ | 3.13 |

Now from value to binder:

| Normalized Fold Change: SA vs Mock [fold] | Binder |
| --- | --- |
| 8.08 | UGT73B2, UDP-glucosyltransferase 73B2 (protein, UniProt Q94C57 1-483, looked up) UDP-glucosyl transferase 73B2: MGSDHHHRKLHVMFFPFMAYGHMIPTLDMAKLFSSRGAKSTILTTSLNSKILQKPIDTFKNLNPGLEIDIQIFNFPCVELGLPEGCENVDFFTSNNNDDKNEMIVKFFFSTRFFKDQLEKLLGTTRPDCLIADMFFPWATEAAGKFNVPRLVFHGTGYFSLCAGYCIGVHKPQKRVASSSEPFVIPELPGNIVITEEQIIDGDGESDMGKFMTEVRESEVKSSGVVLNSFYELEHDYADFYKSCVQKRAWHIGPLSVYNRGFEEKAERGKKANIDEAECLKWLDSKKPNSVIYVSFGSVAFFKNEQLFEIAAGLEASGTSFIWVVRKTKDDREEWLPEGFEERVKGKGMIIRGWAPQVLILDHQATGGFVTHCGWNSLLEGVAAGLPMVTWPVGAEQFYNEKLVTQVLRTGVSVGASKHMKVMMGDFISREKVDKAVREVLAGEAAEERRRRAKKLAAMAKAAVEEGGSSFNDLNSFMEEFSS |
| 15.6 | DMR6, 2-oxoglutarate (2OG) and Fe(II)-dependent oxygenase superfamily protein (protein, UniProt Q9FLV0 1-341, looked up) Protein DOWNY MILDEW RESISTANCE 6: MAAKLISTGFRHTTLPENYVRPISDRPRLSEVSQLEDFPLIDLSSTDRSFLIQQIHQACARFGFFQVINHGVNKQIIDEMVSVAREFFSMSMEEKMKLYSDDPTKTTRLSTSFNVKKEEVNNWRDYLRLHCYPIHKYVNEWPSNPPSFKEIVSKYSREVREVGFKIEELISESLGLEKDYMKKVLGEQGQHMAVNYYPPCPEPELTYGLPAHTDPNALTILLQDTTVCGLQILIDGQWFAVNPHPDAFVINIGDQLQALSNGVYKSVWHRAVTNTENPRLSVASFLCPADCAVMSPAKPLWEAEDDETKPVYKDFTYAEYYKKFWSRNLDQEHCLENFLNN |
